Results published in patent publication US20090253131A1, “HYBRID FUSION REPORTER AND USES THEREOF” (Promega Corporation, priority 2007, published 2009).

Key:
[1] = Kinetic labeling studies of purified DhaA mutants, fluorimage gel analysis; format: biochemical; conditions: fluorimaged gel, 10 ng protein, refined time-course
Protocol: Preliminary kinetic labeling studies were performed using several DhaA.H272F derived mutants. […] A more expanded time course analysis was performed on the DhaA.H272F A7 and the two second generation DhaA.H272F mutants A7YM and H11YL. […] The fluorescent bands on gel were quantitated and the relative rates of product formation determined. In order to determine a labeling rate, the concentration of the H11YL was reduced from 50 ng to 10 ng and a more refined time-course was performed. Under these labeling conditions a linear initial rate could be measured. Quantitation of the fluorimaged gel data allowed second order rate constants to be calculated.

[2] = Fluorescence polarization (FP) labeling kinetics of purified DhaA mutants, TMR substrate; format: biochemical
Text: (§1) Fluorescence polarization (FP) is ideal for the study of small fluorescent ligands binding to proteins. It is unique among methods used to analyze molecular binding because it gives direct nearly instantaneous measure of a substrate bound/free ratio. Therefore, an FP assay was developed as an alternative approach to fluorimage gel analysis of the purified DhaA mutants.
(§2) Based on the sensitivity and truly homogenous nature of this assay, FP was used to characterize the labeling properties of the purified DhaA mutants with the fluorescently coupled substrates. The data from these studies was then used to calculate a second order rate constant for each DhaA mutant-substrate pair.

[3] = FP
Text: as §1, §2

[4] = biological target: T1, rapamycin-mediated FRB/FKBP protein-protein interaction (Homo sapiens, UniProt P42345+P62942); experiment: Protein complementation labeling (PCL) in vitro with HT2 fragments, rapamycin-mediated FRB/FKBP; format: biochemical; conditions: with or without 1 μM rapamycin, 0.1 μM TMR ligand 2 hours
T1 construct: made in house; host or cells: cell-free: RiboMax transcription, Wheat Germ Plus translation
T1 sequence (P42345 2012-2144 limits assumed): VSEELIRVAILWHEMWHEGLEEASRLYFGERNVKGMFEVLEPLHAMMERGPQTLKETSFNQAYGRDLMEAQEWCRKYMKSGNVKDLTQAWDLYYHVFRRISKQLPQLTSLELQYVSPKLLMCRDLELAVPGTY
T1 sequence (P62942 whole entry, the tested form may be a part): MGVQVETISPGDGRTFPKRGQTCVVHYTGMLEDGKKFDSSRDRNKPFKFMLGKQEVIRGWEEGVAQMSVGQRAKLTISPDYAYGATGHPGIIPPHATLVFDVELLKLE
Protocol: The rapamycin-mediated FRB/FKBP protein-protein interaction and a mutant DhaA were employed in a PCL. FRB and FKBP will only interact when rapamycin is present. Therefore, if PCL is successful, the reconstituted reporter is labeled only when the fusion proteins are incubated together in the presence of rapamycin.
Two pF9 (Kan) vectors were generated which contained either FRB or FKBP ORF plus the linker sequence (GlyGlyGlyGlySer)2 upstream of the SgfI/PmeI sites. A mutant DhaA gene (HT2) at positions corresponding to those useful to prepare Renilla luciferase fragments for PCS (see Example 2 and FIG. 7) with FRB-N-terminal and FKBP-C-terminal fusions. HT2 N- and C-termini halves were amplified using PCR primers and cloned into the SgfI/PmeI sites. PCL was performed in vitro by expressing each clone individually using RiboMax followed by Wheat Germ Plus reactions (HT2). Protein was expressed with or without FluoroTect™. FluoroTect™ labeling ensured that all proteins were expressed in approximately equal amounts (data not shown). Unlabeled proteins were then incubated alone or with the appropriated partner with or without 1 μM rapamycin. Ten μl of these products were then incubated with 0.1 μM of a TMR labeled ligand for the mutant dehalogenase, for 2 hours in the dark. […]

[5] = tested on: CHO cells; experiment: Protein complementation labeling (PCL) with HT2 in transiently transfected CHO cells; format: cell-based; conditions: +/−1 μM rapamycin 2.5 hours, 1.0 μM HaloTag TMR ligand 1 hour
Protocol: For transient transfections, CHO cells were plated in a 6 well plate and transfected in duplicate using TransIT®-CHO. The next day, cells were incubated +/−1 μM rapamycin for 2.5 hours followed by 1.0 μM HaloTag® TMR ligand for 1 hour. Cells were washed in PBS, trypsinized, pelleted and mechanically lysed in 200 ul PBS with protease inhibitor and RQDNase I. Normalized amounts of proteins were microwaved for 30 seconds on high and run on a denaturing NuPAGE® gel.

[6] = Binding of DhaA mutants to carboxytetramethylrhodamine chloroalkane substrate
Protocol: DhaA.H272 mutants, i.e. H272F/G/A/Q, bound to carboxytetramethylrhodamine-C10H21NO2—Cl.
A control mutant, DhaA.D106Q, single mutants DhaA.D106C, DhaA.D106Y, and DhaA.D106E, as well as double mutants DhaA.D106C:H272F, DhaA.D106E:H272F, DhaA.D106Q:H272F, and DhaA.D106Y:H272F were analyzed for binding to carboxytetramethylrhodamine-C10H21NO2—Cl. Carboxytetramethylrhodamine-C10H21NO2—Cl bound to DhaA.D106C, DhaA.D106C:H272F, DhaA.D106E, and DhaA.H272F. Thus, the bond formed between carboxytetramethylrhodamine-C10H21NO2—Cl and cysteine or glutamate at residue 106 in a mutant DhaA is stable relative to the bond formed between carboxytetramethylrhodamine-C10H21NO2—Cl and DhaA.WT. Other substitutions at position 106 alone or in combination with substitutions at other residues in DhaA may yield similar results. Further, certain substitutions at position 106 alone or in combination with substitutions at other residues in DhaA may result in a mutant DhaA that forms a bond with only certain substrates.

[7] = MagneGST-based labeling assay of DhaA mutants, biotin substrate; format: biochemical
Text: An automated MagneGST™-based assay was used to screen the DhaA mutant protein libraries. […] The hits identified by the initial primary screen were located in the master plates, consolidated, re-grown and reanalyzed using the MagneGST™ assay.
In order to distinguish these recombined protein mutants from the mutants identified in round one of screening (first generation), they are referred to as “second generation” DhaA mutants.

B1: H11YL: second generation DhaA.H272F mutant, H11 recombined with Y273L (SEQ ID NO:3) (protein)
chain: SEIGTGFPFDPHYVEVLGERMHYVDVGPRDGTPVLFLHGNPTSSYLWRNIIPHVAPSHRCIAPDLIGMGKSDKPDLDYFFDDHVRYLDAFIEALGLEEVVLVIHDWGSALGFHWAKRNPERVKGIACMEFIRPIPTWDEWPEFARETFQAFRTADVGRELIIDQNAFIEGALPMGVVRPLTEVEMDHYREPFLKPVDREPLWRFPNELPIAGEPANIVALVEAYMNWLHQSPVPKLLFWGTPGVLIPPAEAARLAESLPNCKTVDIGPGLFLLQEDNPDLIGSEIARWLPAL
modifications: A synthetic mutant dehalogenase sequence
second order rate constant for carboxytetramethylrhodamine-C10H21NO2—Cl labeling [1]: 500000 M⁻¹ s⁻¹ | second order rate constant with carboxytetramethylrhodamine-C10H21NO2—Cl [2]: 2.2e+06 M⁻¹ s⁻¹ | carboxyfluorescein-C10H21NO2—Cl labeling rate slower/lower than carboxytetramethylrhodamine-C10H21NO2—Cl labeling rate [3]: 100 fold | TMR labeling [4]: labeled | TMR labeling in CHO cells [5]: labeled irrespective of rapamycin addition

B2: DhaA.D106C: DhaA with Asp106 replaced by Cys (protein, UniProt P0A3G2 1-293, looked up, variant D106C)
Haloalkane dehalogenase: MSEIGTGFPFDPHYVEVLGERMHYVDVGPRDGTPVLFLHGNPTSSYLWRNIIPHVAPSHRCIAPDLIGMGKSDKPDLDYFFDDHVRYLDAFIEALGLEEVVLVIHCWGSALGFHWAKRNPERVKGIACMEFIRPIPTWDEWPEFARETFQAFRTADVGRELIIDQNAFIEGALPKCVVRPLTEVEMDHYREPFLKPVDREPLWRFPNELPIAGEPANIVALVEAYMNWLHQSPVPKLLFWGTPGVLIPPAEAARLAESLPNCKTVDIGPGLHYLQEDNPDLIGSEIARWLPAL
binding to carboxytetramethylrhodamine-C10H21NO2—Cl [6]: bound

B3: YM: DhaA.H272F based mutant Y273M (protein, UniProt P0A3G2 1-293, looked up, variant H272F Y273M)
Haloalkane dehalogenase: MSEIGTGFPFDPHYVEVLGERMHYVDVGPRDGTPVLFLHGNPTSSYLWRNIIPHVAPSHRCIAPDLIGMGKSDKPDLDYFFDDHVRYLDAFIEALGLEEVVLVIHDWGSALGFHWAKRNPERVKGIACMEFIRPIPTWDEWPEFARETFQAFRTADVGRELIIDQNAFIEGALPKCVVRPLTEVEMDHYREPFLKPVDREPLWRFPNELPIAGEPANIVALVEAYMNWLHQSPVPKLLFWGTPGVLIPPAEAARLAESLPNCKTVDIGPGLFMLQEDNPDLIGSEIARWLPAL
improvement over the parental clones using the biotin-PEG4-14-Cl substrate [7]: significantly improved

B4: YC: DhaA.H272F based mutant Y273C (protein, UniProt P0A3G2 1-293, looked up, variant H272F Y273C)
Haloalkane dehalogenase: MSEIGTGFPFDPHYVEVLGERMHYVDVGPRDGTPVLFLHGNPTSSYLWRNIIPHVAPSHRCIAPDLIGMGKSDKPDLDYFFDDHVRYLDAFIEALGLEEVVLVIHDWGSALGFHWAKRNPERVKGIACMEFIRPIPTWDEWPEFARETFQAFRTADVGRELIIDQNAFIEGALPKCVVRPLTEVEMDHYREPFLKPVDREPLWRFPNELPIAGEPANIVALVEAYMNWLHQSPVPKLLFWGTPGVLIPPAEAARLAESLPNCKTVDIGPGLFCLQEDNPDLIGSEIARWLPAL
improvement over the parental clones using the biotin-PEG4-14-Cl substrate [7]: significantly improved

B5: DhaA.D106C:H272F: DhaA double mutant D106C and H272F (protein, UniProt P0A3G2 1-293, looked up, variant D106C H272F)
Haloalkane dehalogenase: MSEIGTGFPFDPHYVEVLGERMHYVDVGPRDGTPVLFLHGNPTSSYLWRNIIPHVAPSHRCIAPDLIGMGKSDKPDLDYFFDDHVRYLDAFIEALGLEEVVLVIHCWGSALGFHWAKRNPERVKGIACMEFIRPIPTWDEWPEFARETFQAFRTADVGRELIIDQNAFIEGALPKCVVRPLTEVEMDHYREPFLKPVDREPLWRFPNELPIAGEPANIVALVEAYMNWLHQSPVPKLLFWGTPGVLIPPAEAARLAESLPNCKTVDIGPGLFYLQEDNPDLIGSEIARWLPAL
binding to carboxytetramethylrhodamine-C10H21NO2—Cl [6]: bound

B6: DhaA.H272F: Rhodococcus rhodochrous dehalogenase DhaA with His272 replaced by Phe (protein, UniProt P0A3G2 1-293, looked up, variant H272F)
Haloalkane dehalogenase: MSEIGTGFPFDPHYVEVLGERMHYVDVGPRDGTPVLFLHGNPTSSYLWRNIIPHVAPSHRCIAPDLIGMGKSDKPDLDYFFDDHVRYLDAFIEALGLEEVVLVIHDWGSALGFHWAKRNPERVKGIACMEFIRPIPTWDEWPEFARETFQAFRTADVGRELIIDQNAFIEGALPKCVVRPLTEVEMDHYREPFLKPVDREPLWRFPNELPIAGEPANIVALVEAYMNWLHQSPVPKLLFWGTPGVLIPPAEAARLAESLPNCKTVDIGPGLFYLQEDNPDLIGSEIARWLPAL
binding to carboxytetramethylrhodamine-C10H21NO2—Cl [6]: bound | fold more protein required in the reaction to obtain measurable rates ([2]; relative to DhaA.H272F H11YL): ~420 fold

B7: YL: DhaA.H272F based mutant Y273L (protein, UniProt P0A3G2 1-293, looked up, variant H272F Y273L)
Haloalkane dehalogenase: MSEIGTGFPFDPHYVEVLGERMHYVDVGPRDGTPVLFLHGNPTSSYLWRNIIPHVAPSHRCIAPDLIGMGKSDKPDLDYFFDDHVRYLDAFIEALGLEEVVLVIHDWGSALGFHWAKRNPERVKGIACMEFIRPIPTWDEWPEFARETFQAFRTADVGRELIIDQNAFIEGALPKCVVRPLTEVEMDHYREPFLKPVDREPLWRFPNELPIAGEPANIVALVEAYMNWLHQSPVPKLLFWGTPGVLIPPAEAARLAESLPNCKTVDIGPGLFLLQEDNPDLIGSEIARWLPAL
improvement over the parental clones using the biotin-PEG4-14-Cl substrate [7]: significantly improved

B8: DhaA.D106E: DhaA single mutant D106E (protein, UniProt P0A3G2 1-293, looked up, variant D106E)
Haloalkane dehalogenase: MSEIGTGFPFDPHYVEVLGERMHYVDVGPRDGTPVLFLHGNPTSSYLWRNIIPHVAPSHRCIAPDLIGMGKSDKPDLDYFFDDHVRYLDAFIEALGLEEVVLVIHEWGSALGFHWAKRNPERVKGIACMEFIRPIPTWDEWPEFARETFQAFRTADVGRELIIDQNAFIEGALPKCVVRPLTEVEMDHYREPFLKPVDREPLWRFPNELPIAGEPANIVALVEAYMNWLHQSPVPKLLFWGTPGVLIPPAEAARLAESLPNCKTVDIGPGLHYLQEDNPDLIGSEIARWLPAL
binding to carboxytetramethylrhodamine-C10H21NO2—Cl [6]: bound
